IC50 data for one substance are collected here from US20160000936A1.

The target in this experiment is murine IL-17 (mouse) (UniProt Q62386). The experiment is described as follows: assay not described; table titled 'Source And Binding Information'.
Chain of murine IL-17 (mouse) (Q62386 26-158 limits assumed): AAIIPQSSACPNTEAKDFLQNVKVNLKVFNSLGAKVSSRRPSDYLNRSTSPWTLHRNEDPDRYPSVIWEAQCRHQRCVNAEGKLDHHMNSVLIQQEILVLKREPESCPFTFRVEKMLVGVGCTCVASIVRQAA

Usually IC50 stands for the point on the concentration scale where inhibition reaches its midpoint. A high value points to a need for much substance. anti-murine IL-17 antibody MAB421 gave a half-inhibitory concentration (IC50) of 700 pM.
